This is an account of results in PMC5379764, “Polynucleotide phosphorylase is implicated in homologous recombination and DNA repair in Escherichia coli”.

The data set deals with T1, PNPase wild type (Escherichia coli, UniProt P05055 1-711).
T1 sequence: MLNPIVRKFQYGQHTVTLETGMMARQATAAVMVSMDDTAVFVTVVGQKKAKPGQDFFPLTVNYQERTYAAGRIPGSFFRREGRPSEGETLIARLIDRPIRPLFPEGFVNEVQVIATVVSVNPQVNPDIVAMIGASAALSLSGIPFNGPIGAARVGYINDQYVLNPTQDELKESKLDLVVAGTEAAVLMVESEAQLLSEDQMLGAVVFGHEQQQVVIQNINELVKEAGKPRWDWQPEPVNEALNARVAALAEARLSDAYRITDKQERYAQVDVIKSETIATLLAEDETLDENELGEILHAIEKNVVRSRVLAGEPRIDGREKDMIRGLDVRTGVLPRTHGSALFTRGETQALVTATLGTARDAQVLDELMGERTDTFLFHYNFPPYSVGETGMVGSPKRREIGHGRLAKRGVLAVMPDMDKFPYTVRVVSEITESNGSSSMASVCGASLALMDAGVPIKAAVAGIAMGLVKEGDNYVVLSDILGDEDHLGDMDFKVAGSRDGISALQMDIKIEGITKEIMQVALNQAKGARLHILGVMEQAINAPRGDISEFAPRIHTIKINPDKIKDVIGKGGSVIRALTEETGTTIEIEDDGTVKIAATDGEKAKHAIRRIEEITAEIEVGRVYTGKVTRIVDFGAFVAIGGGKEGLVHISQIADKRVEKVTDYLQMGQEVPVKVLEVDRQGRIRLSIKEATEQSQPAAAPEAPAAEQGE
The data set is described as follows: EMSA; no divalent cation; efficiency similar to RNA01; 50 mM Tris-HCl pH 7.4, 50 mM NaCl, 0.5 mM DTT, 0.025% NP40, 10% glycerol, +/- 2 mM MgCl2 or MnCl2; 50 fmol probe in 10 µl; 20 min at 21 °C; native 5% PAGE at 4. The settings on record: protein: recombinant; tags: His-tag; chain copies: 3; label: 5'-32P; single-stranded 20-mer.

B1: DNA02 (ssDNA)
DNA: ACTGGACAAATACTCCGACG
Turning to B1, the binding result was “binds”.
